For this experiment, the target named is unmodified nucleosome core particle (human | Xenopus laevis, UniProt P04908 1-130; P06899 1-126). The experiment is described as follows: SPR.

B1: CPC_LM containing the Survivin BIR mutant K62/E65/H80A (complex)
chain 1: MAPRKGSSRVAKTNSLRRRKLASFLKDFDREVEIRIKQIESDRQNLLKEVDNLYNIEILRLPKALREMNWLDYFALGGNKQALEEAATADLDITEINKLTAEAIQTPLKSAKTRKVIQVDEMIVEEEEEEENERKNLQTARVKRCPPSKKRTQSIQGKGKGKRSSRANTVTPAVGRLEVSMVKPTPGLTPRFDSRVFKTPGLRTPAAGERIYNISGNGSPLADSKEIFLTVPVGGGESLRLLASDLQRHSIAQLDPEALGNIKKLSNRLAQICSSIRTHK
chain 2: MGAPTLPPAWQPFLKDHRISTFKNWPFLEGCACTPERMAEAGFIHCPTENEPDLAQCFFCFAELAGWEPDDDPIEEHKKASSGCAFLSVKKQFEELTLGEFLKLDRERAKNKIAKETNNKKKEFEETAKKVRRAIEQLAAMD
chain 3: MGTTAPGPIHLLELCDQKLMEFLCNMDNKDLVWLEEIQEEAERMFTREFSKEPELMPK
Broadly, the Kd is a measure of binding affinity in units of concentration. High values mean weaker binding, low ones tighter binding. As to B1, the Kd came out at 309 nM.

The values are drawn from publication PMC6891087 (2019).
